The results in this text go back to paper PMC6930800, “Coexpression of CCR7 and CXCR4 During B Cell Development Controls CXCR4 Responsiveness and Bone Marrow Homing” (Frontiers in Immunology, 2019).

Assay [1] concerns the target T1, CCR7 expressed on CHO-K1 cells (UniProt P32248 25-378).
T1 construct: chemokine receptor CCR7, recombinant, on CHO-K1 cells; source: CHO-K1 cells expressing CCR7 only or co-expressing CXCR4 and CCR7
T1 sequence (looked up): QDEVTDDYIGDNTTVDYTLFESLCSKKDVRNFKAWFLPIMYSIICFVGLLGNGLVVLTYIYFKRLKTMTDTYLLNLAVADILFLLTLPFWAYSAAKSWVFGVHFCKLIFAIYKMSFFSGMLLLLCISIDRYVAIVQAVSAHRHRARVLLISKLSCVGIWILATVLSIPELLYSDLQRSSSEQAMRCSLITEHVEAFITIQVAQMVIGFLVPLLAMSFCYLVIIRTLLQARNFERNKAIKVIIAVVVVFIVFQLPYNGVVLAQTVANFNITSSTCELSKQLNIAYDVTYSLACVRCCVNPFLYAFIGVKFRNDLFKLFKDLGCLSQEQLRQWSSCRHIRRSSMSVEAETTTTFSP
Kind of assay: radioligand binding; competition on CHO-K1 cells expressing CCR7 only; tracer 0.1 nM 125I-CCL19, increasing concentrations of unlabelled competitor; non-specific binding defined with 300 nM competitor. The following applies: one partner purified.

The target of assay [2] is T1, CCR7 expressed on CHO-K1 cells. Kind of assay: radioligand binding; competition on CHO-K1 cells co-expressing CXCR4 and CCR7; tracer 0.1 nM 125I-CCL19, increasing concentrations of unlabelled competitor; non-specific binding defined with 300 nM competitor. Conditions: one partner purified.

B1: CCL21 (ligand, UniProt O00585 24-134, looked up)
chain: SDGGAQDCCLKYSQRKIPAKVVRSYRKQEPSLGCSIPAILFLPRKRSQAELCADPKELWVQQLMQHLDKTPSPQKPAQGCRKDRGASKTGKKGKGSKGCKRTERSQTPKGP
For the molecule B1, the IC50 was found to be 4.06 nM in assay [1] and 4.2 nM in assay [2].

B2: CCL19 (ligand, UniProt Q99731 22-98, looked up)
chain: GTNDAEDCCLSVTQKPIPGYIVRNFHYLLIKDGCRVPAVVFTTLRGRQLCAPPDQPWVERIIQRLQRTSAKMKRRSS
notes: also called unlabeled CCL19
For B2, the results for the IC50 in assay [1] and in assay [2] were 1.84 nM and 1.7 nM, respectively.
